# In paper PMC7134557:
# B1: BaMV helicase-like domain (of BaMV replicase) (Bamboo mosaic virus) (protein)
# chain: YSPDIERAAAFARDVMSNKTGAILPKQSHEWKTTLKRKCKLAPRQTLISVIHGAGGSGKSRALQEYMRNNKEDPIVTILPTNELRADWKAKLPAHDPDMFMTFENALLIPKGNVVIMDDYTKLPRGYIEAYVQNSPMLDLLILTGDPRQSEHFESAEGNTINDLSPSPVVFSAYARYYINATHRNNQDLANALGVYSEKQGKTRISVSNHIEDGRHTLVPSQIKQRNYVSMGRKTSTYAGCQGITASRVQVIIDNDTAKCSHQVLYTAFSRAADEIHFCNTMTDEKQFWAKVKCTPYLQAILNLTKEHSLPDP
# Substrate: Nc1ncnc2c1ncn2[C@@H]1O[C@H](COP(=O)(O)OP(=O)(O)OP(=O)(O)O)[C@@H](O)[C@H]1O
# Experiment: purified protein
protein,measurement,value
B1,Km,148 ± 5 µM
same,kcat,82 s⁻¹
